Measurements from article PMC3063768.

Columns and labels:
[1] = molecular target: CA of isolated HIV-1 A14C/E45C cores (HIV-1); assay: cross-linking; isolated HIV-1 cores with double-cysteine mutant CA, with or without oxidizer; non-reducing SDS-PAGE, immunoblotting with rabbit anti-CA serum
[2] = molecular target: CA of isolated HIV-1 P207C/T216C cores, without oxidizer (HIV-1); assay: as above
[3] = molecular target: HIV-1 CA A14C/E45C, tubular assemblies (HIV-1); assay: cross-linking; preassembled double-cysteine mutant CA tubes oxidized with CuSO4/1,10-phenanthroline for 5 seconds, quenched with iodoacetamide and neocuproine; non-reducing SDS-PAGE, Coomassie Blue; with or without prior TRIM5α CC-SPRY (18 µM)
[4] = molecular target: HIV-1 CA P207C/T216C, tubular assemblies, non-oxidized (HIV-1); assay: as above
[5] = molecular target: HIV-1 capsid-nucleocapsid (CA-NC), preassembled tubular assemblies (HIV-1); assay: co-sedimentation; preassembled CA-NC tubes (2 mg/ml or 10 µM, with TG50 oligonucleotide) incubated with TRIM5α CC-SPRY (0-20 µM) 1 hr at room temperature; pelleted at 20,000 g 15 min; SDS-PAGE, Coomassie Blue, gel densitometry of pellet
[6] = molecular target: HIV-1 capsid protein (CA), wild type, preassembled tubular assemblies (HIV-1); assay: co-sedimentation; preassembled wild-type CA tubes (64 µM) incubated with TRIM5α CC-SPRY (0-20 µM) 1 hr at room temperature in 10 mM Tris pH 7.5, 330 mM NaCl, 1 mM TCEP, 5% glycerol; pelleted at 20,000 g 15 min; SDS-PAGE, Coomassie Blue, gel densitometry of pellet

CA of isolated HIV-1 A14C/E45C cores (natural protein)
stoichiometry N [1]: 6

CA of isolated HIV-1 P207C/T216C cores, without oxidizer (natural protein)
stoichiometry N [2]: 3

HIV-1 CA A14C/E45C, tubular assemblies (natural protein)
stoichiometry N [3]: 6

HIV-1 CA P207C/T216C, tubular assemblies, non-oxidized (natural protein)
stoichiometry N [4]: 3

Rhesus macaque TRIM5α coiled-coil and SPRY domains (TRIM5αrh CC-SPRY, residues 134–497) (from UniProt Q0PF16 134-497) (domain or fragment)
binding ratio (molar ratio of bound TRIM5αrh CC-SPRY to CA-NC in the pellet) at 1 µM TRIM5αrh CC-SPRY and 10 µM CA-NC [5]: 0.034 molar ratio | binding ratio (molar ratio of bound TRIM5αrh CC-SPRY to CA-NC in the pellet) at 18 µM TRIM5αrh CC-SPRY [5]: 0.21 molar ratio | binding ratio (molar ratio of bound TRIM5αrh CC-SPRY to CA in the pellet) at 18 µM TRIM5αrh CC-SPRY [6]: 0.41 molar ratio
